Experimental findings from the RNAGym collection of RNA variant scans (doi:10.7554/elife.80360) are described below.

B1: Hairpin Ribozyme (parent)
chain: GUCCUCUUUCACGUGCGCGUGAAAGAGAGAAGUGAACCAGAGAAACACACGUUGUGGUAUAUUACCUGGUA

Variants of B1 are the subject of the data set. The data set can be described thus: self-cleavage, relative activity (ratio to wild type); higher = more cleavage; co-transcriptional.
On to C18G A41G, for which the self-cleavage was 0.555.
Take G17A G54A: the self-cleavage was determined as 0.543.
With C18A G21U the figure was 0.669; with C18G G54A, 0.51.
Turning to C18G G54U, the self-cleavage amounted to 0.449.
Turning to G17C A47G, the self-cleavage worked out at 0.0817.
In the case of G17C A47C, the self-cleavage was 0.187.
With G17C A47U the figure was 0.222; with G17C U55A, 0.257.
With C18A U33A the figure was 0.115; with C18A U33C, 0.132; with C18A U33G, 0.15.
With G17C C37G the figure was 0.362; with C16U C50G, 0.339; with C16U C50A, 0.295.
For the variant C18G G19C, the self-cleavage was 0.804.
As for G17U A49G, the self-cleavage was 0.818.
Turning to G17U A49U, the self-cleavage is 0.195.
To G17A G69A belongs 0.306; to G17U U53C, 0.828; to C18G A45C, 0.152.
With G17U A35U the figure was 0.557; with C18A C50U, 0.428; with C18A C50A, 0.314.
Turning to C18A A23U, the self-cleavage was determined as 0.923.
On to C18A A23C, for which the self-cleavage turned out to be 0.863.
With G17U G51C, the self-cleavage is 1.17.
Regarding G17U G51A, the self-cleavage worked out at 0.946.
Take C16U G17C: the self-cleavage is 0.985.
Take C16U G17U: the self-cleavage was found to be 0.92.
For C16U U55G, the self-cleavage turned out to be 0.219.
To C16U U55A belongs 0.357; to C18G G25A, 0.578; to C18A A44G, 0.199.
With C18A A44U the figure was 0.105; with G17C U62C, 0.233.
Turning to G17C U60G, the self-cleavage amounted to 0.425.
As to G17C A44U, the self-cleavage is 0.0541.
As for G17A A71C, the self-cleavage was 1.37.
To C18G G57U belongs 0.243; to C18G G57A, 0.118; to C18G A71U, 0.698.
On to C16U A24U, for which the self-cleavage was 1.02.
To C16U A24G belongs 0.997.
To C16U G57C belongs 0.113; to C18A C66G, 0.113.
For the variant C18A C66U, the self-cleavage came to 0.594.
As to C18A C66A, the self-cleavage came out at 0.258.
As to G17U A22U, the self-cleavage was 0.793.
On to G17U G21U, for which the self-cleavage was found to be 0.53.
To G17C G69A belongs 0.404; to C16U G19A, 1.03; to G17C U70G, 0.807.
With G17C U70A the figure was 0.862; with G17C U70C, 0.866.
To C18G C65G belongs 0.212; to C16U G40U, 0.146; to G17C C18A, 0.947.
G17C C18G: the self-cleavage worked out at 0.645.
With C16U C46G the figure was 0.141.
With C16U C46A, the self-cleavage amounted to 0.177.
With C16U C66A the figure was 0.194; with C18A C48A, 0.14.
To G17C U63A belongs 0.193; to G17A A35U, 0.778.
For C18G G69C, the self-cleavage was found to be 0.205.
In the case of C16U U60A, the self-cleavage is 1.01.
On to C16U A28C, for which the self-cleavage amounted to 0.565.
To C16U G21A belongs 0.843.
With G17U G25U the figure was 0.637; with C18G A49U, 0.196; with C18G A49C, 0.12.
For G17C A22C, the self-cleavage was found to be 0.75.
G17C G21U: the self-cleavage is 0.53.
With C18A G54C the figure was 0.395; with G17U G69U, 0.258.
Turning to G17U G19C, the self-cleavage came out at 0.846.
To G17C U53A belongs 0.936; to G17C U53C, 0.826.
With C18G U52A the figure was 0.833; with C18G U52C, 1.04; with G17A C37G, 0.332.
To G17U A61U belongs 0.158.
As to G17U A61C, the self-cleavage worked out at 0.161.
For the variant G17C A59G, the self-cleavage was 0.171.
As for G17C A59C, the self-cleavage was 0.162.
For the variant C18A G68U, the self-cleavage worked out at 0.239.
With C18A A41C, the self-cleavage was determined as 1.21.
To G17A G32A belongs 0.105; to C18A U53G, 0.891.
To C18A U53A belongs 1.02; to G17U A36U, 0.483.
As to G17C A61U, the self-cleavage is 0.198.
Take C18G G68U: the self-cleavage turned out to be 0.171.
With C16U A26G the figure was 0.959; with C18A G51A, 1.01.
As for G17U U70A, the self-cleavage turned out to be 0.95.
As to C16U U70C, the self-cleavage amounted to 0.949.
To C16U U70A belongs 1.03.
To G17U C48A belongs 0.106; to C18A A49U, 0.264; to C18A A49G, 0.54.
G17C A30C: the self-cleavage was found to be 0.099.
To G17A A39C belongs 0.51; to G17C C65A, 0.748; to C18A A71G, 1.14.
With C16U A23G the figure was 1.
In the case of G17U C65U, the self-cleavage amounted to 0.383.
With G17A G56C the figure was 0.185; with G17A G56A, 0.142; with G17A G56U, 0.137.
To C18A U52A belongs 1.07; to C18A U52G, 0.86.
Regarding C18A G69A, the self-cleavage worked out at 0.455.
To C18A A24U belongs 0.86.
With C18A A24C, the self-cleavage was 0.994.
With G17C U58C the figure was 0.825; with C16U A22C, 0.899; with G17U A71G, 1.1.
To G17C A71U belongs 0.639; to C18G A22C, 0.79.
Turning to C18G A22G, the self-cleavage came out at 0.804.
Turning to C16U C65U, the self-cleavage came out at 0.443.
With C16U C65G the figure was 0.26.
For G17C G34C, the self-cleavage was 1.16.
With G17C G34U the figure was 1.42; with G17C G34A, 1.02; with G17A G42C, 0.367.
With G17U C50G the figure was 0.192; with C18A G25A, 0.681; with C18A G56A, 0.158.
To C18A G56U belongs 0.196; to G17A A24U, 1.03.
G17A A24C: the self-cleavage came to 0.894.
To C16U C37A belongs 0.361.
Consider C16U C37U, for which the self-cleavage came out at 0.508.
With G17A U70G the figure was 0.918.
To G17C A26C belongs 0.655; to C16U G25U, 0.873; to C18G G32U, 0.1.
To C18G G32A belongs 0.154; to C16U G29A, 0.146.
With C18A A47C, the self-cleavage came out at 0.424.
Consider G17U A39C, for which the self-cleavage stood at 0.479.
Regarding G17U A39U, the self-cleavage was 0.337.
To G17A G51C belongs 0.656; to C18A G42U, 0.369; to C18A G42C, 0.35.
With C16U U63C the figure was 0.165; with C18G A23U, 0.752.
Regarding C18G A23G, the self-cleavage is 0.84.
With G17C U20C the figure was 0.585; with C16U A39G, 0.326.
To C18G A28U belongs 0.5.
On to C18G A26U, for which the self-cleavage is 0.512.
As for C18G G34U, the self-cleavage worked out at 1.32.
With C18G G34C the figure was 1.17; with C18G A61G, 0.152; with C18G A61C, 0.201.
To C18A G19A belongs 0.886; to G17A U62A, 0.159.
C18A A64C: the self-cleavage is 0.19.
On to C18A U60A, for which the self-cleavage was 1.02.
With C18A U60G the figure was 0.732; with C18G A43U, 0.0776.
C18G A43C: the self-cleavage was 0.122.
For the variant C16U U62A, the self-cleavage amounted to 0.18.
